Test results from patent US20250346679A1 (INVOX PHARMA, published 2025).
One block for each binder: values may come before it.

Key:
hCD137-mFc-Avi = molecular target: T1, hCD137-mFc-Avi (human; mouse, UniProt Q07011 24-186, biotin on the Avi sequence where the biotinylated form was used); assay: flow cytometry of yeast clones with 10 nM dimeric human antigen
T1 construct: also called human CD137-mFc-Avi; dimeric human CD137; not shown: mouse IgG2a Fc domain (mIgG2a Fc)

[1] = molecular target: human CD137, cell-surface (human, UniProt Q07011 24-255); assay: cell-based or functional assay
[2] = molecular target: T2, cynomolgus CD137, cell-surface (cynomolgus, UniProt Q07011 24-255 (human entry)); assay: cell-based or functional assay
T2 chain: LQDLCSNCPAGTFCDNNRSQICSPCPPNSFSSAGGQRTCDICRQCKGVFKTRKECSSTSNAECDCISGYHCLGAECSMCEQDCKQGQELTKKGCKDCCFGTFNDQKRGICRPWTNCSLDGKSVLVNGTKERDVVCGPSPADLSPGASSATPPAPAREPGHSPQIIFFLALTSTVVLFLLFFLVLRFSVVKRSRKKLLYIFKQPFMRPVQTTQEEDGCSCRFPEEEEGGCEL

[3] = molecular target: human PD-L1, cell-surface (human, UniProt Q9NZQ7 19-290); assay: cell-based or functional assay
human PD-L1, cell-surface, sequence (Q9NZQ7 19-290): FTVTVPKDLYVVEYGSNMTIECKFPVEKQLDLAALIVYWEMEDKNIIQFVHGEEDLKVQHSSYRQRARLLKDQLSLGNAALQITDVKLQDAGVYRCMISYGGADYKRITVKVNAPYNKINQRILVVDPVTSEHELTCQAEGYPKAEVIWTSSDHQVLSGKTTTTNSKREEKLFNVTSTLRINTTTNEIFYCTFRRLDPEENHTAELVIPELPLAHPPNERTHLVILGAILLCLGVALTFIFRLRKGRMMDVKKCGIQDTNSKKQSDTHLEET

T1 sequence (Q07011 24-186): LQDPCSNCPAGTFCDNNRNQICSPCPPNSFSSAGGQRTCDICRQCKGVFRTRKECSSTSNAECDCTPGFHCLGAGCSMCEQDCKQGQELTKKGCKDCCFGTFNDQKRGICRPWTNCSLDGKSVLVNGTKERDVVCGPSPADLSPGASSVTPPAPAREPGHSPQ

B1: FS22-172-004 Fcab clone displayed on yeast (designed binder)
chain: GQPREPQVYTLPPSRDELNYIYPPYNQVSLTCLVKGFYPSDIAVEWESNGQPENNYKTTPPVLDSDGSFFLYSKLTVGADRWLEGNVFSCSVMHEALHNHYTQKSLSLSPG
- % APC positive cells (hCD137-mFc-Avi): > 10%

B3: FS22-172-006 Fcab clone displayed on yeast (designed binder)
chain: GQPREPQVYTLPPSRDELRKYYPPYNQLSLTCLVKGFYPSDIAVEWESNGQPENNYKTTPPVLDSDGSFFLYSKLTVGADRWLEGNVFSCSVMHEALHNHYTQKSLSLSPG
- % APC positive cells (hCD137-mFc-Avi): > 10%

B5: FS22-172-002 Fcab clone displayed on yeast (designed binder)
chain: GQPREPQVYTLPPSRDELPFQMPPYNQVSLTCLVKGFYPSDIAVEWESNGQPENNYKTTPPVLDSDGSFFLYSKLTVGADRWLEGNVFSCSVMHEALHNHYTQKSLSLSPG
- % APC positive cells (hCD137-mFc-Avi): > 10%

B8: FS22-172-001 Fcab clone displayed on yeast (designed binder)
chain: GQPREPQVYTLPPSRDELPFVMPPYNQVSLTCLVKGFYPSDIAVEWESNGQPENNYKTTPPVLDSDGSFFLYSKLTVGADRWLEGNVFSCSVMHEALHNHYTQKSLSLSPG
- % APC positive cells (hCD137-mFc-Avi): > 10%

B9: FS22-053-010 Fcab clone displayed on yeast (designed binder)
chain: GQPREPQVYTLPPSRDELNPPYLFSNQVSLTCLVKGFYPSDIAVEWESNGQPENNYKTTPPVLDSDGSFFLYSKLTVDYMRWLDGNVFSCSVMHEALHNHYTQKSLSLSPG
notes: yeast display clone, FS22-053 EF library
- % APC positive cells (hCD137-mFc-Avi): > 30%

B15: FS22-053-017-AA/E05v2 (bispecific antibody, human IgG1, kappa, L234A L235A)
heavy: EVQLVQSGAEVKRPGASVKVSCKASGYTFTSYGISWVRQAPGQGLEWMGWISAYSGGTNYAQKLQGRVTMTTDTSTSTAYMELRSLRSDDTAVYYCARDLFPTIFGVSYYYYWGQGTLVTVSSASTKGPSVFPLAPSSKSTSGGTAALGCLVKDYFPEPVTVSWNSGALTSGVHTFPAVLQSSGLYSLSSVVTVPSSSLGTQTYICNVNHKPSNTKVDKKVEPKSCDKTHTCPPCPAPEAAGGPSVFLFPPKPKDTLMISRTPEVTCVVVDVSHEDPEVKFNWYVDGVEVHNAKTKPREEQYNSTYRVVSVLTVLHQDWLNGKEYKCKVSNKALPAPIEKTISKAKGQPREPQVYTLPPSRDELNPPYLFSNQVSLTCLVKGFYPSDIAVEWESNGQPENNYKTTPPVLDSDGSFFLYSKLTVYHWRWLEGNVFSCSVMHEALHNHYTQKSLSLSPG
light: DIQMTQSPSTLSASVGDRVTITCRASQSISGRLAWYQQKPGKAPNLLIYEASNLESGVPSRFSGSGSGTEFTLTISSLQPEDFATYYCQQSYSTPRVTFGQGTKVEIKRTVAAPSVFIFPPSDEQLKSGTASVVCLLNNFYPREAKVQWKVDNALQSGNSQESVTEQDSKDSTYSLSSTLTLSKADYEKHKVYACEVTHQGLSSPVTKSFNRGEC
- EC50 (nM), hIL-2 release, CD8+ T cells, donor 171115A, HEK.hPD-L1 XL [1]: 0.15 nM
- EC50 (nM), hIL-2 release, CD8+ T cells, donor 171115A, MDA-MB-231 XL [1]: 0.01 nM
- EC50 (nM), hIL-2 release, CD8+ T cells, donor 171115B, HEK.hPD-L1 XL [1]: 0.12 nM
- EC50 (nM), hIL-2 release, CD8+ T cells, donor 171115B, MDA-MB-231 XL [1]: 0.01 nM
- EC50 (nM) (crosslinked), mIL-2 release, DO11.10.cCD137 with HEK.cyPD-L1 [2]: 0.1 nM
- Emax (pg/ml) (crosslinked), mIL-2 release, DO11.10.cCD137 with HEK.cyPD-L1 [2]: 9020 pg/mL

The remaining lines, values ahead:

- % APC positive cells (hCD137-mFc-Avi): > 30%
B2: FS22-053-008 Fcab clone displayed on yeast (designed binder)
chain: GQPREPQVYTLPPSRDELNPPYLFSNQVSLTCLVKGFYPSDIAVEWESNGQPENNYKTTPPVLDSDGSFFLYSKLTVDYWRWLEGNVFSCSVMHEALHNHYTQKSLSLSPG
notes: as for B9

- % APC positive cells (hCD137-mFc-Avi): > 30%
B4: FS22-053-011 Fcab clone displayed on yeast (designed binder)
chain: GQPREPQVYTLPPSRDELNPPYLFSNQVSLTCLVKGFYPSDIAVEWESNGQPENNYKTTPPVLDSDGSFFLYSKLTVDYWRWTDGNVFSCSVMHEALHNHYTQKSLSLSPG
notes: as for B9

- % APC positive cells (hCD137-mFc-Avi): > 30%
B6: FS22-053-012 Fcab clone displayed on yeast (designed binder)
chain: GQPREPQVYTLPPSRDELNPPYLFSNQVSLTCLVKGFYPSDIAVEWESNGQPENNYKTTPPVLDSDGSFFLYSKLTVDHMRWLEGNVFSCSVMHEALHNHYTQKSLSLSPG
notes: as for B9

- % APC positive cells (hCD137-mFc-Avi): > 30%
B7: FS22-053-009 Fcab clone displayed on yeast (designed binder)
chain: GQPREPQVYTLPPSRDELNPPYLFSNQVSLTCLVKGFYPSDIAVEWESNGQPENNYKTTPPVLDSDGSFFLYSKLTVEHTRWLDGNVFSCSVMHEALHNHYTQKSLSLSPG
notes: as for B9

- % APC positive cells (hCD137-mFc-Avi): > 10%
B10: FS22-172-003 Fcab clone displayed on yeast (designed binder)
chain: GQPREPQVYTLPPSRDELPYIIPPYNQVSLTCLVKGFYPSDIAVEWESNGQPENNYKTTPPVLDSDGSFFLYSKLTVGADRWLEGNVFSCSVMHEALHNHYTQKSLSLSPG

- % APC positive cells (hCD137-mFc-Avi): > 10%
B11: FS22-172-005 Fcab clone displayed on yeast (designed binder)
chain: GQPREPQVYTLPPSRDELQQVYPPYNQVSLTCLVKGFYPSDIAVEWESNGQPENNYKTTPPVLDSDGSFFLYSKLTVGADRWLEGNVFSCSVMHEALHNHYTQKSLSLSPG

- EC50 (nM), hIL-2 release, CD8+ T cells, donor 171115A, HEK.hPD-L1 XL [1]: 0.13 nM
- EC50 (nM), hIL-2 release, CD8+ T cells, donor 171115A, MDA-MB-231 XL [1]: 0.02 nM
- EC50 (nM), hIL-2 release, CD8+ T cells, donor 171115B, HEK.hPD-L1 XL [1]: 0.12 nM
- EC50 (nM), hIL-2 release, CD8+ T cells, donor 171115B, MDA-MB-231 XL [1]: 0.02 nM
- EC50 (nM) (crosslinked), mIL-2 release, DO11.10.cCD137 with HEK.cyPD-L1 [2]: 0.07 nM
- Emax (pg/ml) (crosslinked), mIL-2 release, DO11.10.cCD137 with HEK.cyPD-L1 [2]: 9660 pg/mL
B12: FS22-053-008-AA/G12v2 (bispecific antibody, human IgG1, kappa, L234A L235A)
heavy: EVQLVQSGAEVKRPGASVKVSCKASGYTFTSYGISWVRQAPGQGLEWMGWISAYSGGTNYAQKLQGRVTMTTDTSTSTAYMELRSLRSDDTAVYYCARDLFPTIFGVSYYYYWGQGTLVTVSSASTKGPSVFPLAPSSKSTSGGTAALGCLVKDYFPEPVTVSWNSGALTSGVHTFPAVLQSSGLYSLSSVVTVPSSSLGTQTYICNVNHKPSNTKVDKKVEPKSCDKTHTCPPCPAPEAAGGPSVFLFPPKPKDTLMISRTPEVTCVVVDVSHEDPEVKFNWYVDGVEVHNAKTKPREEQYNSTYRVVSVLTVLHQDWLNGKEYKCKVSNKALPAPIEKTISKAKGQPREPQVYTLPPSRDELNPPYLFSNQVSLTCLVKGFYPSDIAVEWESNGQPENNYKTTPPVLDSDGSFFLYSKLTVDYWRWLEGNVFSCSVMHEALHNHYTQKSLSLSPG
light: DIQMTQSPSTLSASVGDRVTITCRASQSISGRLAWYQQKPGKAPNLLIYEASNLESGVPSRFSGSGSGTEFTLTISSLQPEDFATYYCQQSYSWPRTFGQGTKVEIKRTVAAPSVFIFPPSDEQLKSGTASVVCLLNNFYPREAKVQWKVDNALQSGNSQESVTEQDSKDSTYSLSSTLTLSKADYEKHKVYACEVTHQGLSSPVTKSFNRGEC

- EC50 (nM), hIL-2 release, CD8+ T cells, donor 171115A, HEK.hPD-L1 XL [1]: 0.11 nM
- EC50 (nM), hIL-2 release, CD8+ T cells, donor 171115A, MDA-MB-231 XL [1]: 0.01 nM
- EC50 (nM), hIL-2 release, CD8+ T cells, donor 171115B, HEK.hPD-L1 XL [1]: 0.12 nM
- EC50 (nM), hIL-2 release, CD8+ T cells, donor 171115B, MDA-MB-231 XL [1]: 0.01 nM
- EC50 (nM), IFN-γ release, human MLR [3]: 0.04 nM
- Emax (pg/ml), IFN-γ release, human MLR [3]: 3330 pg/mL
- EC50 (nM) (crosslinked), mIL-2 release, DO11.10.cCD137 with HEK.cyPD-L1 [2]: 0.11 nM
- Emax (pg/ml) (crosslinked), mIL-2 release, DO11.10.cCD137 with HEK.cyPD-L1 [2]: 9360 pg/mL
B13: FS22-053-017-AA/E12v2 (bispecific antibody, human IgG1, kappa, L234A L235A)
heavy: EVQLVQSGAEVKRPGASVKVSCKASGYPFTSYGISWVRQAPGQGLEWMGWISAYSGGTNYAQKLQGRVTMTTDTSTSTAYMELRSLRSDDTAVYYCARDLFPTIFGVSYYYYWGQGTLVTVSSASTKGPSVFPLAPSSKSTSGGTAALGCLVKDYFPEPVTVSWNSGALTSGVHTFPAVLQSSGLYSLSSVVTVPSSSLGTQTYICNVNHKPSNTKVDKKVEPKSCDKTHTCPPCPAPEAAGGPSVFLFPPKPKDTLMISRTPEVTCVVVDVSHEDPEVKFNWYVDGVEVHNAKTKPREEQYNSTYRVVSVLTVLHQDWLNGKEYKCKVSNKALPAPIEKTISKAKGQPREPQVYTLPPSRDELNPPYLFSNQVSLTCLVKGFYPSDIAVEWESNGQPENNYKTTPPVLDSDGSFFLYSKLTVYHWRWLEGNVFSCSVMHEALHNHYTQKSLSLSPG
light: DIQMTQSPSTLSASVRDRVIITCRASQSIGNRLAWYQHKPGKAPKLLIYEASTSETGVPSRFSGSGSGTDFTLTISSLQPEDFATYYCQQSYSTPYTFGQGTKLEIKRTVAAPSVFIFPPSDEQLKSGTASVVCLLNNFYPREAKVQWKVDNALQSGNSQESVTEQDSKDSTYSLSSTLTLSKADYEKHKVYACEVTHQGLSSPVTKSFNRGEC

- EC50 (nM), hIL-2 release, CD8+ T cells, donor 171115A, HEK.hPD-L1 XL [1]: 0.1 nM
- EC50 (nM), hIL-2 release, CD8+ T cells, donor 171115A, MDA-MB-231 XL [1]: 0.01 nM
- EC50 (nM), hIL-2 release, CD8+ T cells, donor 171115B, HEK.hPD-L1 XL [1]: 0.2 nM
- EC50 (nM), hIL-2 release, CD8+ T cells, donor 171115B, MDA-MB-231 XL [1]: 0.01 nM
- EC50 (nM) (crosslinked), mIL-2 release, DO11.10.cCD137 with HEK.cyPD-L1 [2]: 0.08 nM
- Emax (pg/ml) (crosslinked), mIL-2 release, DO11.10.cCD137 with HEK.cyPD-L1 [2]: 8930 pg/mL
B14: FS22-053-017-AA/G12v2 (bispecific antibody, human IgG1, kappa, L234A L235A)
heavy: EVQLVQSGAEVKRPGASVKVSCKASGYTFTSYGISWVRQAPGQGLEWMGWISAYSGGTNYAQKLQGRVTMTTDTSTSTAYMELRSLRSDDTAVYYCARDLFPTIFGVSYYYYWGQGTLVTVSSASTKGPSVFPLAPSSKSTSGGTAALGCLVKDYFPEPVTVSWNSGALTSGVHTFPAVLQSSGLYSLSSVVTVPSSSLGTQTYICNVNHKPSNTKVDKKVEPKSCDKTHTCPPCPAPEAAGGPSVFLFPPKPKDTLMISRTPEVTCVVVDVSHEDPEVKFNWYVDGVEVHNAKTKPREEQYNSTYRVVSVLTVLHQDWLNGKEYKCKVSNKALPAPIEKTISKAKGQPREPQVYTLPPSRDELNPPYLFSNQVSLTCLVKGFYPSDIAVEWESNGQPENNYKTTPPVLDSDGSFFLYSKLTVYHWRWLEGNVFSCSVMHEALHNHYTQKSLSLSPG
light: DIQMTQSPSTLSASVGDRVTITCRASQSISGRLAWYQQKPGKAPNLLIYEASNLESGVPSRFSGSGSGTEFTLTISSLQPEDFATYYCQQSYSWPRTFGQGTKVEIKRTVAAPSVFIFPPSDEQLKSGTASVVCLLNNFYPREAKVQWKVDNALQSGNSQESVTEQDSKDSTYSLSSTLTLSKADYEKHKVYACEVTHQGLSSPVTKSFNRGEC
